Biological target: T1, amphyphisin SH3 (AMPH_HUMAN), P49418
T1 chain: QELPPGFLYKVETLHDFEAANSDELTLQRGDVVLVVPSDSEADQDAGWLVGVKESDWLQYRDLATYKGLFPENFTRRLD
Assay: SPOT array

Going from LSNILRRPIIVISD [P21580 199-212] to LDPALLRPGRFDKL [Q13608 854-867], the normalised SPOT signal, Boehringer light units (BLU); mean over the file's lines of this peptide rises from 26 to 944.

Compared with LDSALLRPGRIDRK [P47210 301-314], APEPPPRPPPALSP [Q96NP9 14-28] is lower in normalised SPOT signal, Boehringer light units (BLU); mean over the file's lines of this peptide: 1620 for the first, 962 for the second.

Compared with LDPALLRPGRLDRK [P43686 317-330], LEDSPKRPKEAENP [P51858 162-175] is lower in normalised SPOT signal, Boehringer light units (BLU); mean over the file's lines of this peptide: 2030 for the first, 12.6 for the second.

Going from LDPALMRPGRLDRK [P35998 327-340] to LDSILRRPYVTSQP [Q9Y5K1 339-352], the normalised SPOT signal, Boehringer light units (BLU); mean over the file's lines of this peptide falls from 4700 to 10.6.

Going from APELLKRPKEYTVR [O14897 560-573] to LDMALRRPPRLRLS [Q8WWL8 44-57], the normalised SPOT signal, Boehringer light units (BLU); mean over the file's lines of this peptide rises from 28 to 4180.

Compared with LSKTLRRPRSLLET [Q9C000 828-841], LDPLPRRPPAGRRG [BAC04326 52-66] is higher in normalised SPOT signal, Boehringer light units (BLU); mean over the file's lines of this peptide: 32.3 for the first, 1100 for the second.

First: LDPALRRPGRFDRE [Q9HA41 350-363]
Second: LEQAFRRPNVNLTS [Q8WVX9 331-344]
The normalised SPOT signal, Boehringer light units (BLU); mean over the file's lines of this peptide of the first is higher: 666 for the first, 43.1 for the second.

Going from LSGLIKRPGDLPEV [Q9UFP1 189-202] to LEFPPRRPFARRRM [O00513 852-865], the normalised SPOT signal, Boehringer light units (BLU); mean over the file's lines of this peptide rises from 21.9 to 241.

Compared with LDPALMRPGRFHRQ [O43931 13-26], LEIPPPKPPAPEMN [Q96F28 217-231] is lower in normalised SPOT signal, Boehringer light units (BLU); mean over the file's lines of this peptide: 2880 for the first, 31.6 for the second.

Compared with LDPALLRPGRFDRQ [Q9Y4W6 459-472], AAPLLRRPHGGAGP [O75086 179-192] is lower in normalised SPOT signal, Boehringer light units (BLU); mean over the file's lines of this peptide: 806 for the first, 25.6 for the second.

First: LDASPRRPPGPTTS [Q01970 912-926]
Second: LDNALIRPGRFDMQ [Q9Y2Q2 234-247]
The normalised SPOT signal, Boehringer light units (BLU); mean over the file's lines of this peptide of the first is lower: 210 for the first, 240 for the second.

Compared with LEIPPPKPPAPLLH [Q8WXI9 364-378], LDPALIRPGRIDRK [Q03527 337-350] is higher in normalised SPOT signal, Boehringer light units (BLU); mean over the file's lines of this peptide: 36.7 for the first, 4590 for the second.

Compared with LSQDLIRPIRKTGT [Q9HBF6 199-212], LDPALRRPSQKVYR [O15047 30-43] is lower in normalised SPOT signal, Boehringer light units (BLU); mean over the file's lines of this peptide: 1840 for the first, 37.6 for the second.

Going from LSHPLARPRRDAEP [P27539 244-257] to LDGALMRPGRLDRH [Q9UQ90 461-474], the normalised SPOT signal, Boehringer light units (BLU); mean over the file's lines of this peptide rises from 984 to 1540.

Compared with LSYSLYRPRKYLYV [Q9Y6D4 264-277], LELALKRPRPPVLS [Q9ULJ3 268-281] is lower in normalised SPOT signal, Boehringer light units (BLU); mean over the file's lines of this peptide: 137 for the first, 29.6 for the second.

With LEESPWKPPTYLFS [Q9P239 478-492] the normalised SPOT signal, Boehringer light units (BLU); mean over the file's lines of this peptide was 39.8.

Biological target: endophilin SH3 (SH3G2_HUMAN), Q99962
Assay: SPOT array

Compared with LSNILRRPIIVISD [P21580 199-212], LDPALLRPGRFDKL [Q13608 854-867] is lower in normalised SPOT signal, Boehringer light units (BLU); mean over the file's lines of this peptide: 84.4 for the first, 0 for the second.

Compared with LDSALLRPGRIDRK [P47210 301-314], APEPPPRPPPALSP [Q96NP9 14-28] is higher in normalised SPOT signal, Boehringer light units (BLU); mean over the file's lines of this peptide: 117 for the first, 2330 for the second.

First: LDPALLRPGRLDRK [P43686 317-330]
Second: LEDSPKRPKEAENP [P51858 162-175]
The normalised SPOT signal, Boehringer light units (BLU); mean over the file's lines of this peptide of the first is higher: 123 for the first, 2.6 for the second.

Going from LDPALMRPGRLDRK [P35998 327-340] to LDSILRRPYVTSQP [Q9Y5K1 339-352], the normalised SPOT signal, Boehringer light units (BLU); mean over the file's lines of this peptide falls from 346 to 54.4.

Going from APELLKRPKEYTVR [O14897 560-573] to LDMALRRPPRLRLS [Q8WWL8 44-57], the normalised SPOT signal, Boehringer light units (BLU); mean over the file's lines of this peptide rises from 29.7 to 1210.

First: LSKTLRRPRSLLET [Q9C000 828-841]
Second: LDPLPRRPPAGRRG [BAC04326 52-66]
The normalised SPOT signal, Boehringer light units (BLU); mean over the file's lines of this peptide of the first is lower: 51.9 for the first, 4540 for the second.

First: LDPALRRPGRFDRE [Q9HA41 350-363]
Second: LEQAFRRPNVNLTS [Q8WVX9 331-344]
The normalised SPOT signal, Boehringer light units (BLU); mean over the file's lines of this peptide of the first is higher: 159 for the first, 42.5 for the second.

First: LSGLIKRPGDLPEV [Q9UFP1 189-202]
Second: LEFPPRRPFARRRM [O00513 852-865]
The normalised SPOT signal, Boehringer light units (BLU); mean over the file's lines of this peptide of the first is lower: 49.5 for the first, 3050 for the second.

Compared with LDPALMRPGRFHRQ [O43931 13-26], LEIPPPKPPAPEMN [Q96F28 217-231] is lower in normalised SPOT signal, Boehringer light units (BLU); mean over the file's lines of this peptide: 311 for the first, 43.4 for the second.

Going from LDPALLRPGRFDRQ [Q9Y4W6 459-472] to AAPLLRRPHGGAGP [O75086 179-192], the normalised SPOT signal, Boehringer light units (BLU); mean over the file's lines of this peptide falls from 139 to 102.

First: LDASPRRPPGPTTS [Q01970 912-926]
Second: LDNALIRPGRFDMQ [Q9Y2Q2 234-247]
The normalised SPOT signal, Boehringer light units (BLU); mean over the file's lines of this peptide of the first is higher: 1090 for the first, 80.5 for the second.

Compared with LEIPPPKPPAPLLH [Q8WXI9 364-378], LDPALIRPGRIDRK [Q03527 337-350] is lower in normalised SPOT signal, Boehringer light units (BLU); mean over the file's lines of this peptide: 712 for the first, 75.3 for the second.

Compared with LSQDLIRPIRKTGT [Q9HBF6 199-212], LDPALRRPSQKVYR [O15047 30-43] is lower in normalised SPOT signal, Boehringer light units (BLU); mean over the file's lines of this peptide: 276 for the first, 108 for the second.

First: LSHPLARPRRDAEP [P27539 244-257]
Second: LDGALMRPGRLDRH [Q9UQ90 461-474]
The normalised SPOT signal, Boehringer light units (BLU); mean over the file's lines of this peptide of the first is lower: 405 for the first, 1590 for the second.

Going from LSYSLYRPRKYLYV [Q9Y6D4 264-277] to LELALKRPRPPVLS [Q9ULJ3 268-281], the normalised SPOT signal, Boehringer light units (BLU); mean over the file's lines of this peptide falls from 288 to 129.

In the case of LEESPWKPPTYLFS [Q9P239 478-492], the normalised SPOT signal, Boehringer light units (BLU); mean over the file's lines of this peptide is reported as 53.3.
